± gives the standard deviation of the averaged measurements.
Assay: total protein half-life in vivo (active degradation + dilution); higher = more stable protein
[1] = E. coli NCM3722 delta-clpP delta-lon delta-hslV, growth: N-lim chemostat, doubling time 6 h
[2] = E. coli NCM3722 delta-clpP, growth: N-lim chemostat, doubling time 6 h
[3] = E. coli NCM3722 delta-hslV, growth: N-lim chemostat, doubling time 6 h
[4] = E. coli NCM3722 delta-lon, growth: N-lim chemostat, doubling time 6 h
[5] = E. coli NCM3722 delta-smpB, growth: N-lim chemostat, doubling time 6 h
[6] = wild type E. coli NCM3722, growth: C-lim chemostat, doubling time 3 h
[7] = wild type E. coli NCM3722, growth: C-lim chemostat, doubling time 6 h
[8] = wild type E. coli NCM3722, growth: C-lim chemostat, doubling time 12 h
[9] = wild type E. coli NCM3722, growth: N-lim chemostat, doubling time 6 h
[10] = wild type E. coli NCM3722, growth: N-lim chemostat, doubling time 12 h
[11] = wild type E. coli NCM3722, growth: P-lim chemostat, doubling time 6 h
[12] = wild type E. coli NCM3722, growth: P-lim chemostat, doubling time 12 h

Row | Sequence | total protein half-life in vivo [1] [h] | total protein half-life in vivo [2] [h] | total protein half-life in vivo [3] [h] | total protein half-life in vivo [4] [h] | total protein half-life in vivo [5] [h] | total protein half-life in vivo [6] [h] | total protein half-life in vivo [7] [h] | total protein half-life in vivo [8] [h] | total protein half-life in vivo [9] [h] | total protein half-life in vivo [10] [h] | total protein half-life in vivo [11] [h] | total protein half-life in vivo [12] [h]
1 | MVSKPFQRPFSLATRLTFFISLATIAAFFAFAWIMIHSVKVHFAEQDINDLKEISATLERVLNHPDETQARRLMTLEDIVSGYSNVLISLADSQGKTVYHSPGAPDIREFTRDAIPDKDAQGGEVYLLSGPTMMMPGHGHGHMEHSNWRMINLPVGPLVDGKPIYTLYIALSIDFHLHYINDLMNKLIMTASVISILIVFIVLLAVHKGHAPIRSVSRQIQNITSKDLDVRLDPQTVPIELEQLVLSFNHMIERIEDVFTRQSNFSADIAHEIRTPITNLITQTEIALSQSRSQKELEDVLYSNLEELTRMAKMVSDMLFLAQADNNQLIPEKKMLNLADEVGKVFDFFEALAEDRGVELRFVGDKCQVAGDPLMLRRALSNLLSNALRYTPTGETIVVRCQTVDHLVQVIVENPGTPIAPEHLPRLFDRFYRVDPSRQRKGEGSGIGLAIVKSIVVAHKGTVAVTSDARGTRFVITLPA | 6.87 ± 0.17 | 6.49 ± 0.093 | 5.99 ± 1.1 | 5.94 ± 0.29 | 5.79 ± 0.62 | 3.52 ± 0.32 | 6.15 ± 0.53 | 12.5 ± 1.1 | 5.98 ± 0.11 | 11.78 ± 0.088 | 6.28 ± 0.53 | 12.6 ± 0.38
2 | MESLTLQPIARVDGTINLPGSKSVSNRALLLAALAHGKTVLTNLLDSDDVRHMLNALTALGVSYTLSADRTRCEIIGNGGPLHAEGALELFLGNAGTAMRPLAAALCLGSNDIVLTGEPRMKERPIGHLVDALRLGGAKITYLEQENYPPLRLQGGFTGGNVDVDGSVSSQFLTALLMTAPLAPEDTVIRIKGDLVSKPYIDITLNLMKTFGVEIENQHYQQFVVKGGQSYQSPGTYLVEGDASSASYFLAAAAIKGGTVKVTGIGRNSMQGDIRFADVLEKMGATICWGDDYISCTRGELNAIDMDMNHIPDAAMTIATAALFAKGTTTLRNIYNWRVKETDRLFAMATELRKVGAEVEEGHDYIRITPPEKLNFAEIATYNDHRMAMCFSLVALSDTPVTILDPKCTAKTFPDYFEQLARISQAA [P0A6D3] | 5.15 ± 0.18 | 5.52 ± 1.1 | 4.53 ± 0.15 | 5.22 ± 0.56 | 4.53 ± 0.049 | 3.1 ± 0.1 | 5.96 ± 0.62 | 11.3 ± 0.63 | 4.45 ± 0.31 | 7.534 ± 0.05 | 5.98 ± 0.078 | 12.1 ± 1.5
3 | MTMSLEVFEKLEAKVQQAIDTITLLQMEIEELKEKNNSLSQEVQNAQHQREELERENNHLKEQQNGWQERLQALLGRMEEV [P0AF36] | 7.42 ± 0.15 | 5.62 ± 0.36 | 3.23 | 4.06 ± 0.25 | 3.08 ± 0.33 | 2.8 ± 0.15 | 5.01 ± 0.5 | 8.02 ± 1.9 | 2.88 ± 0.047 | 5.13 ± 2.1 | 4.53 | 8.35 ± 0.092

From the supplement of paper PMC11246515
